These results are taken from US20150322445A1.

Test [1] has as its target Leavenworthia alabamica Lal2 polypeptide, a1-1 allele (Leavenworthia alabamica). The test can be described thus: cell-based or functional assay.
In test [2] the target is Leavenworthia alabamica Lal2 polypeptide, a1-2 allele (Leavenworthia alabamica). Put plainly: cell-based or functional assay.
Leavenworthia alabamica Lal2 polypeptide, a1-2 allele (Leavenworthia alabamica), sequence (main, as listed by the source): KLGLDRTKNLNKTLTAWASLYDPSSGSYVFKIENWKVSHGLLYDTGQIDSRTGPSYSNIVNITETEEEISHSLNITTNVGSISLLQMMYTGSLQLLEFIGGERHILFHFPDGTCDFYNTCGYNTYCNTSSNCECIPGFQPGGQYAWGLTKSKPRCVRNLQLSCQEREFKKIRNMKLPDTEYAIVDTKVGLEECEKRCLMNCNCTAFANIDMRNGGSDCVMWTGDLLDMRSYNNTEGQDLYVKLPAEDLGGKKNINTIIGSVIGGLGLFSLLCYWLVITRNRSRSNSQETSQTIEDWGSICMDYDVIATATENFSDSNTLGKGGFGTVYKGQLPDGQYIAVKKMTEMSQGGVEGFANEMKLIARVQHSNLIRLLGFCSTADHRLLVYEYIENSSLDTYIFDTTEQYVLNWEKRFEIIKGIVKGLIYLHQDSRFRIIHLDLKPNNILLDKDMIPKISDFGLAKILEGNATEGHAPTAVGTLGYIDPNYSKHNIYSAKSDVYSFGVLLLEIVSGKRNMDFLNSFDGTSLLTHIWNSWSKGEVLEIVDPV

Leavenworthia alabamica Lal2 polypeptide, a1-1 allele (Leavenworthia alabamica), sequence (chain, as listed by the source limits assumed, form in doubt): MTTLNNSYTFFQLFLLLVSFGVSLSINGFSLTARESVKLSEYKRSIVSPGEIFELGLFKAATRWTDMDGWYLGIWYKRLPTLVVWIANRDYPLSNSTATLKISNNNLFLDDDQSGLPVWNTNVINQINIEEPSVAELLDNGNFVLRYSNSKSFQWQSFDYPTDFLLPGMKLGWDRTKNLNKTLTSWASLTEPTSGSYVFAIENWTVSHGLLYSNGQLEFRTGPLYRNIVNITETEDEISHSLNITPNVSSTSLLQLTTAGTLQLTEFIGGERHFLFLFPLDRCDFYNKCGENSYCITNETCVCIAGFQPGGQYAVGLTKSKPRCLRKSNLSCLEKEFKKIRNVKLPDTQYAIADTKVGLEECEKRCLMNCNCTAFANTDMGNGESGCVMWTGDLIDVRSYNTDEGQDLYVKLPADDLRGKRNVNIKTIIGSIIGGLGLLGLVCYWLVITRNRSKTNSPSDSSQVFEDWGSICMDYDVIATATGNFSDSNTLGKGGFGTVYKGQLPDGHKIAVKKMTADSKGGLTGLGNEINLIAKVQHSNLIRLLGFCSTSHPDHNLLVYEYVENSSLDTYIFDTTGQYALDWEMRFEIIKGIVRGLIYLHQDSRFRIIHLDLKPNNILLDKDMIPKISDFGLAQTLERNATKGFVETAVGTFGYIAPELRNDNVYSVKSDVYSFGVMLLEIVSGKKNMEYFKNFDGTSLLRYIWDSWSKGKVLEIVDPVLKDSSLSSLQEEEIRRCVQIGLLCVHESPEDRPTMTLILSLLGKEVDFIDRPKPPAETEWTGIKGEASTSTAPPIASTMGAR

Turning to “Leavenworthia alabamica SCRL polypeptide, a1-1 allele”, the Pollen rejection reactions observed (fewer than ten pollen tubes in the pistil); female line 1-15 (Lal2 transformant) x male line 3-13 (SCRL transformant), 5 crosses in test [1] was 3 of 5 crosses. For the molecule “Leavenworthia alabamica SCRL polypeptide, a1-1 allele (ligand)”, in test [1], the Pollen rejection reactions observed (fewer than ten pollen tubes in the pistil); female line 1-15 (Lal2 transformant) x male line 4-21 (SCRL transformant), 5 crosses is 3 of 5 crosses; the Pollen rejection reactions observed (fewer than ten pollen tubes in the pistil); female line 1-25 (Lal2 transformant) x male line 3-13 (SCRL transformant), 5 crosses is 4 of 5 crosses; the Pollen rejection reactions observed (fewer than ten pollen tubes in the pistil); female line 1-25 (Lal2 transformant) x male line 4-21 (SCRL transformant), 5 crosses is 1 of 5 crosses.

B1: Leavenworthia alabamica SCRL, a2 allele (truncated protein) (ligand)
chain: MAKSVRLISFIIYLTINMLIFAVNPKPHSSQVPPIPDPGKHRRCF
In the case of B1, the Crosses that produced fruit or had germinated pollen tubes; a1-2 recipient plant x a2 pollen donors (% of 9 crosses) in test [2] is 89.
